According to publication PMC8467691, “Human Cystathionine γ-Lyase Is Inhibited by S-Nitrosation: A New Crosstalk Mechanism between NO and H2S” (Antioxidants, 2021):

Molecular target: the molecule itself
Test: SEC; HiLoad 16/600 Superdex 200 in buffer B (20 mM Tris-HCl, pH 7.5, 150 mM NaCl, 10% glycerol, 100 μM TCEP, 20 μM PLP), after the HisTrap step of the purification

| Protein | stoichiometry N |
| --- | --- |
| wild-type human cystathionine γ-lyase (enzyme, UniProt P32929 1-405, looked up, human cystathionine γ-lyase (CSE), wild type; TEV and 3C protease recognition sites follow the His6 tag; No cleavage of the tag is told; also called CSE; WT CSE; source: recombinant, synthetic gene in pET-28b, purified (HisTrap FF Crude, Superdex 200 SEC)) MQEKDASSQGFLPHFQHFATQAIHVGQDPEQWTSRAVVPPISLSTTFKQGAPGQHSGFEYSRSGNPTRNCLEKAVAALDGAKYCLAFASGLAATVTITHLLKAGDQIICMDDVYGGTNRYFRQVASEFGLKISFVDCSKIKLLEAAITPETKLVWIETPTNPTQKVIDIEGCAHIVHKHGDIILVVDNTFMSPYFQRPLALGADISMYSATKYMNGHSDVVMGLVSVNCESLHNRLRFLQNSLGAVPSPIDCYLCNRGLKTLHVRMEKHFKNGMAVAQFLESNPWVEKVIYPGLPSHPQHELVKRQCTGCTGMVTFYIKGTLQHAEIFLKNLKLFTLAESLGGFESLAELPAIMTHASVLKNDRDVLGISDTLIRLSVGLEDEEDLLEDLDQALKAAHPPSGSHS | 4 |
| human cystathionine γ-lyase C137S variant (enzyme, UniProt P32929 1-405, looked up, human cystathionine γ-lyase (CSE) with C137S; TEV and 3C protease recognition sites follow the His6 tag; also called C137S CSE; source: recombinant, pET-28b, site-directed mutagenesis of the WT vector, purified (HisTrap FF Crude, Superdex 200 SEC)) MQEKDASSQGFLPHFQHFATQAIHVGQDPEQWTSRAVVPPISLSTTFKQGAPGQHSGFEYSRSGNPTRNCLEKAVAALDGAKYCLAFASGLAATVTITHLLKAGDQIICMDDVYGGTNRYFRQVASEFGLKISFVDSSKIKLLEAAITPETKLVWIETPTNPTQKVIDIEGCAHIVHKHGDIILVVDNTFMSPYFQRPLALGADISMYSATKYMNGHSDVVMGLVSVNCESLHNRLRFLQNSLGAVPSPIDCYLCNRGLKTLHVRMEKHFKNGMAVAQFLESNPWVEKVIYPGLPSHPQHELVKRQCTGCTGMVTFYIKGTLQHAEIFLKNLKLFTLAESLGGFESLAELPAIMTHASVLKNDRDVLGISDTLIRLSVGLEDEEDLLEDLDQALKAAHPPSGSHS | 4 |
| human cystathionine γ-lyase C172S variant (enzyme, UniProt P32929 1-405, looked up, human cystathionine γ-lyase (CSE) with C172S; TEV and 3C protease recognition sites follow the His6 tag; also called C172S CSE; source: recombinant, pET-28b, site-directed mutagenesis of the WT vector, purified (HisTrap FF Crude, Superdex 200 SEC)) MQEKDASSQGFLPHFQHFATQAIHVGQDPEQWTSRAVVPPISLSTTFKQGAPGQHSGFEYSRSGNPTRNCLEKAVAALDGAKYCLAFASGLAATVTITHLLKAGDQIICMDDVYGGTNRYFRQVASEFGLKISFVDCSKIKLLEAAITPETKLVWIETPTNPTQKVIDIEGSAHIVHKHGDIILVVDNTFMSPYFQRPLALGADISMYSATKYMNGHSDVVMGLVSVNCESLHNRLRFLQNSLGAVPSPIDCYLCNRGLKTLHVRMEKHFKNGMAVAQFLESNPWVEKVIYPGLPSHPQHELVKRQCTGCTGMVTFYIKGTLQHAEIFLKNLKLFTLAESLGGFESLAELPAIMTHASVLKNDRDVLGISDTLIRLSVGLEDEEDLLEDLDQALKAAHPPSGSHS | 4 |
| human cystathionine γ-lyase C310S variant (enzyme, UniProt P32929 1-405, looked up, human cystathionine γ-lyase (CSE) with C310S; TEV and 3C protease recognition sites follow the His6 tag; also called C310S CSE; source: recombinant, pET-28b, site-directed mutagenesis of the WT vector, purified (HisTrap FF Crude, Superdex 200 SEC)) MQEKDASSQGFLPHFQHFATQAIHVGQDPEQWTSRAVVPPISLSTTFKQGAPGQHSGFEYSRSGNPTRNCLEKAVAALDGAKYCLAFASGLAATVTITHLLKAGDQIICMDDVYGGTNRYFRQVASEFGLKISFVDCSKIKLLEAAITPETKLVWIETPTNPTQKVIDIEGCAHIVHKHGDIILVVDNTFMSPYFQRPLALGADISMYSATKYMNGHSDVVMGLVSVNCESLHNRLRFLQNSLGAVPSPIDCYLCNRGLKTLHVRMEKHFKNGMAVAQFLESNPWVEKVIYPGLPSHPQHELVKRQCTGSTGMVTFYIKGTLQHAEIFLKNLKLFTLAESLGGFESLAELPAIMTHASVLKNDRDVLGISDTLIRLSVGLEDEEDLLEDLDQALKAAHPPSGSHS | 4 |
| human cystathionine γ-lyase C84S variant (enzyme, UniProt P32929 1-405, looked up, human cystathionine γ-lyase (CSE) with C84S; TEV and 3C protease recognition sites follow the His6 tag; also called C84S CSE; source: recombinant, pET-28b, site-directed mutagenesis of the WT vector, purified (HisTrap FF Crude, Superdex 200 SEC)) MQEKDASSQGFLPHFQHFATQAIHVGQDPEQWTSRAVVPPISLSTTFKQGAPGQHSGFEYSRSGNPTRNCLEKAVAALDGAKYSLAFASGLAATVTITHLLKAGDQIICMDDVYGGTNRYFRQVASEFGLKISFVDCSKIKLLEAAITPETKLVWIETPTNPTQKVIDIEGCAHIVHKHGDIILVVDNTFMSPYFQRPLALGADISMYSATKYMNGHSDVVMGLVSVNCESLHNRLRFLQNSLGAVPSPIDCYLCNRGLKTLHVRMEKHFKNGMAVAQFLESNPWVEKVIYPGLPSHPQHELVKRQCTGCTGMVTFYIKGTLQHAEIFLKNLKLFTLAESLGGFESLAELPAIMTHASVLKNDRDVLGISDTLIRLSVGLEDEEDLLEDLDQALKAAHPPSGSHS | 4 |
| human cystathionine γ-lyase C109S variant (enzyme, UniProt P32929 1-405, looked up, human cystathionine γ-lyase (CSE) with C109S; TEV and 3C protease recognition sites follow the His6 tag; also called C109S CSE; source: recombinant, pET-28b, site-directed mutagenesis of the WT vector, purified (HisTrap FF Crude, Superdex 200 SEC)) MQEKDASSQGFLPHFQHFATQAIHVGQDPEQWTSRAVVPPISLSTTFKQGAPGQHSGFEYSRSGNPTRNCLEKAVAALDGAKYCLAFASGLAATVTITHLLKAGDQIISMDDVYGGTNRYFRQVASEFGLKISFVDCSKIKLLEAAITPETKLVWIETPTNPTQKVIDIEGCAHIVHKHGDIILVVDNTFMSPYFQRPLALGADISMYSATKYMNGHSDVVMGLVSVNCESLHNRLRFLQNSLGAVPSPIDCYLCNRGLKTLHVRMEKHFKNGMAVAQFLESNPWVEKVIYPGLPSHPQHELVKRQCTGCTGMVTFYIKGTLQHAEIFLKNLKLFTLAESLGGFESLAELPAIMTHASVLKNDRDVLGISDTLIRLSVGLEDEEDLLEDLDQALKAAHPPSGSHS | 4 |
| human cystathionine γ-lyase C70S variant (enzyme, UniProt P32929 1-405, looked up, human cystathionine γ-lyase (CSE) with C70S; TEV and 3C protease recognition sites follow the His6 tag; also called C70S CSE; source: recombinant, pET-28b, site-directed mutagenesis of the WT vector, purified (HisTrap FF Crude, Superdex 200 SEC)) MQEKDASSQGFLPHFQHFATQAIHVGQDPEQWTSRAVVPPISLSTTFKQGAPGQHSGFEYSRSGNPTRNSLEKAVAALDGAKYCLAFASGLAATVTITHLLKAGDQIICMDDVYGGTNRYFRQVASEFGLKISFVDCSKIKLLEAAITPETKLVWIETPTNPTQKVIDIEGCAHIVHKHGDIILVVDNTFMSPYFQRPLALGADISMYSATKYMNGHSDVVMGLVSVNCESLHNRLRFLQNSLGAVPSPIDCYLCNRGLKTLHVRMEKHFKNGMAVAQFLESNPWVEKVIYPGLPSHPQHELVKRQCTGCTGMVTFYIKGTLQHAEIFLKNLKLFTLAESLGGFESLAELPAIMTHASVLKNDRDVLGISDTLIRLSVGLEDEEDLLEDLDQALKAAHPPSGSHS | 4 |
| human cystathionine γ-lyase C307S variant (enzyme, UniProt P32929 1-405, looked up, human cystathionine γ-lyase (CSE) with C307S; TEV and 3C protease recognition sites follow the His6 tag; also called C307S CSE; source: recombinant, pET-28b, site-directed mutagenesis of the WT vector, purified (HisTrap FF Crude, Superdex 200 SEC)) MQEKDASSQGFLPHFQHFATQAIHVGQDPEQWTSRAVVPPISLSTTFKQGAPGQHSGFEYSRSGNPTRNCLEKAVAALDGAKYCLAFASGLAATVTITHLLKAGDQIICMDDVYGGTNRYFRQVASEFGLKISFVDCSKIKLLEAAITPETKLVWIETPTNPTQKVIDIEGCAHIVHKHGDIILVVDNTFMSPYFQRPLALGADISMYSATKYMNGHSDVVMGLVSVNCESLHNRLRFLQNSLGAVPSPIDCYLCNRGLKTLHVRMEKHFKNGMAVAQFLESNPWVEKVIYPGLPSHPQHELVKRQSTGCTGMVTFYIKGTLQHAEIFLKNLKLFTLAESLGGFESLAELPAIMTHASVLKNDRDVLGISDTLIRLSVGLEDEEDLLEDLDQALKAAHPPSGSHS | 4 |
| human cystathionine γ-lyase C229S variant (enzyme, UniProt P32929 1-405, looked up, human cystathionine γ-lyase (CSE) with C229S; TEV and 3C protease recognition sites follow the His6 tag; also called C229S CSE; source: recombinant, pET-28b, site-directed mutagenesis of the WT vector, purified (HisTrap FF Crude, Superdex 200 SEC)) MQEKDASSQGFLPHFQHFATQAIHVGQDPEQWTSRAVVPPISLSTTFKQGAPGQHSGFEYSRSGNPTRNCLEKAVAALDGAKYCLAFASGLAATVTITHLLKAGDQIICMDDVYGGTNRYFRQVASEFGLKISFVDCSKIKLLEAAITPETKLVWIETPTNPTQKVIDIEGCAHIVHKHGDIILVVDNTFMSPYFQRPLALGADISMYSATKYMNGHSDVVMGLVSVNSESLHNRLRFLQNSLGAVPSPIDCYLCNRGLKTLHVRMEKHFKNGMAVAQFLESNPWVEKVIYPGLPSHPQHELVKRQCTGCTGMVTFYIKGTLQHAEIFLKNLKLFTLAESLGGFESLAELPAIMTHASVLKNDRDVLGISDTLIRLSVGLEDEEDLLEDLDQALKAAHPPSGSHS | 4 |
